This is an account of results in paper PMC11081511.

In this series the test system is Phloem protein 2 (PP2), 26 kDa major variant (cucumber). Put plainly: northwestern. The conditions noted are these: Northwestern: 10 mM Tris-HCl pH 7.5, 1 mM EDTA, 100 mM NaCl, 0.02% Ficoll 400, 0.02% PVP-40, 1% BSA, 5 pmol probe, 50 ug/ml yeast tRNA, renaturation 25 C. ….

With CY1 D-RNA, the binding signal (fold vs PEMV2) was 10.

For CY1 full-length RNA, the binding signal (fold vs PEMV2) was 7.5. Turning to PEMV2 RNA, the binding signal (reference for fold values) was 1.
